In patent publication EP4613775A1 (Eberhard Karls Universität Tübingen Medizinische Fakultät, dated 2025):
Values belong to the binder of their own block, whether it stands above or below them.

Tests used:
[1] = biological target: T1, KIFC3 peptide SWSSQEHLEWEPACQ (human); assay: peptide microarray epitope mapping (binding stretch)
T1 peptide: SWSSQEHLEWEPACQ

[2] = biological target: T2, KIFC3 peptide EYTITVSAAEIYNEV (human); assay: as above
T2 peptide: EYTITVSAAEIYNEV

[3] = biological target: T3, KIFC3 peptide AELGSWSSQEHLEWE (human); assay: as above
T3 peptide: AELGSWSSQEHLEWE

[4] = biological target: T4, KIFC3 peptide LGSWSSQEHLEWEPA (human); assay: as above
T4 peptide: LGSWSSQEHLEWEPA

[5] = biological target: T5, KIFC3 peptide DWEYTITVSAAEIYN (human); assay: as above
T5 peptide: DWEYTITVSAAEIYN

[6] = biological target: T6, KIFC3 peptide ASDWEYTITVSAAEI (human); assay: as above
T6 peptide: ASDWEYTITVSAAEI

aminoacylase 3 = biological target: T7, aminoacylase 3 (human, UniProt Q96HD9 1-319); assay: custom ELISA
T7 construct: Also the protein of the custom ELISA; also called ACY3
T7 sequence (looked up): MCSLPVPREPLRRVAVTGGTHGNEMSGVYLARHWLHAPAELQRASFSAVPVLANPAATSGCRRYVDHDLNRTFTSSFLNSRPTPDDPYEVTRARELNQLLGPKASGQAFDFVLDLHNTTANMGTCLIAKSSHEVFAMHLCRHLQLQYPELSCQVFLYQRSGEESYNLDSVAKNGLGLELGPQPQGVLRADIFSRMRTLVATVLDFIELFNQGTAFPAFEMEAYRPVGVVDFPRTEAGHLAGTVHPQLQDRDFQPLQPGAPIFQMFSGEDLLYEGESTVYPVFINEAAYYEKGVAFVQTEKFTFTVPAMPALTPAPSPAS

[7] = biological target: T8, DDX53 peptide RIFGNREMKAKAKAA (human); assay: peptide microarray epitope mapping (binding stretch)
T8 peptide: RIFGNREMKAKAKAA

[8] = biological target: T9, DDX53 peptide SGEKRLIPKPTCRFK (human); assay: as above
T9 peptide: SGEKRLIPKPTCRFK

[9] = biological target: T10, DDX53 peptide KVRIFGNREMKAKAK (human); assay: as above
T10 peptide: KVRIFGNREMKAKAK

[10] = biological target: T11, DDX53 peptide EAKVRIFGNREMKAK (human); assay: as above
T11 peptide: EAKVRIFGNREMKAK

[11] = biological target: T12, DDX53 peptide SRGLDLNDVTHVYNY (human); assay: as above
T12 peptide: SRGLDLNDVTHVYNY

[12] = biological target: T13, DDX53 peptide LKSGEKRLIPKPTCR (human); assay: as above
T13 peptide: LKSGEKRLIPKPTCR

[13] = biological target: T14, DDX53 peptide GLDLNDVTHVYNYDF (human); assay: as above
T14 peptide: GLDLNDVTHVYNYDF

[14] = biological target: T15, DDX53 peptide HVYNYDFPRNIDVYV (human); assay: as above
T15 peptide: HVYNYDFPRNIDVYV

DEAD-box helicase 53 = biological target: T16, DEAD-box helicase 53 (human, UniProt Q86TM3 1-631); assay: custom ELISA
T16 construct: Also the protein of the custom ELISA; also called DDX53; CAGE
T16 sequence (Q86TM3 whole entry): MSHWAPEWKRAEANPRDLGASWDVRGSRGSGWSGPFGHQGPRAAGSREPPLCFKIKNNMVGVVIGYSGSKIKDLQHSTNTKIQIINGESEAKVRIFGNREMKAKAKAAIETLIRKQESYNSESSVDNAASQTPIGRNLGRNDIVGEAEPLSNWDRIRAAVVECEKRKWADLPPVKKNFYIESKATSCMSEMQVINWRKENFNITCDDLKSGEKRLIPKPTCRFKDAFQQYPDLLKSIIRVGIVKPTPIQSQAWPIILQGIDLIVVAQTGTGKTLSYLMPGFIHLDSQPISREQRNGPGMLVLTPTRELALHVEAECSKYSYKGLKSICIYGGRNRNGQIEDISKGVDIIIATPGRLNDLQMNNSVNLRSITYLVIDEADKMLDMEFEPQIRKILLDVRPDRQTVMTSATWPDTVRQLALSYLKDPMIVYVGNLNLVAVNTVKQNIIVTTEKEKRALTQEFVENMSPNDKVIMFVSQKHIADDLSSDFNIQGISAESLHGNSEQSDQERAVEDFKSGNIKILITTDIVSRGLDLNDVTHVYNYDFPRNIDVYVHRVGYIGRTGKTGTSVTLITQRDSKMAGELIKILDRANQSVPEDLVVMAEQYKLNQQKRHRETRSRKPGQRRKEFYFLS

[15] = biological target: T17, AKR1A1 peptide ADLQLEYLDLYLMHW (human); assay: peptide microarray epitope mapping (binding stretch)
T17 peptide: ADLQLEYLDLYLMHW

[16] = biological target: T18, AKR1A1 peptide WRYIVPMLTVDGKRV (human); assay: as above
T18 peptide: WRYIVPMLTVDGKRV

[17] = biological target: T19, AKR1A1 peptide VPMLTVDGKRVPRDA (human); assay: as above
T19 peptide: VPMLTVDGKRVPRDA

[18] = biological target: T20, AKR1A1 peptide MLTVDGKRVPRDAGH (human); assay: as above
T20 peptide: MLTVDGKRVPRDAGH

[19] = biological target: T21, AKR1A1 peptide TLADLQLEYLDLYLM (human); assay: as above
T21 peptide: TLADLQLEYLDLYLM

[20] = biological target: T22, AKR1A1 peptide TVDGKRVPRDAGHPL (human); assay: as above
T22 peptide: TVDGKRVPRDAGHPL

[21] = biological target: T23, AKR1A1 peptide LEYLDLYLMHWPYAF (human); assay: as above
T23 peptide: LEYLDLYLMHWPYAF

[22] = biological target: T24, AKR1A1 peptide RKTLADLQLEYLDLY (human); assay: as above
T24 peptide: RKTLADLQLEYLDLY

[23] = biological target: T25, AKR1A1 peptide LQLEYLDLYLMHWPY (human); assay: as above
T25 peptide: LQLEYLDLYLMHWPY

[24] = biological target: T26, AKR1A1 peptide YIVPMLTVDGKRVPR (human); assay: as above
T26 peptide: YIVPMLTVDGKRVPR

[25] = biological target: T27, aldo-keto reductase family 1 member A1 (human, UniProt P14550 1-325); assay: custom ELISA
T27 construct: Also the protein of the custom ELISA; also called AKR1A1
T27 sequence (looked up): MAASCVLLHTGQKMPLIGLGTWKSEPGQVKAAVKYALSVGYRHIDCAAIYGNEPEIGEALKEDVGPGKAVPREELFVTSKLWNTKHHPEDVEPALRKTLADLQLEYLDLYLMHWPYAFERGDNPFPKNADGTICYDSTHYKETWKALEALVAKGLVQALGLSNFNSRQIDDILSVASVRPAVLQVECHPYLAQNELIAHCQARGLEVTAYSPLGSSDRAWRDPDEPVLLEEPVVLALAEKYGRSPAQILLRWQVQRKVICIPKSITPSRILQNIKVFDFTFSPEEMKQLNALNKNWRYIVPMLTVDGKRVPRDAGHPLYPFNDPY

kinesin family member C3 = biological target: T28, kinesin family member C3 (human, UniProt Q9BVG8-5 1-687); assay: custom ELISA
T28 construct: Also the protein of the custom ELISA; also called KIFC3
T28 sequence (looked up): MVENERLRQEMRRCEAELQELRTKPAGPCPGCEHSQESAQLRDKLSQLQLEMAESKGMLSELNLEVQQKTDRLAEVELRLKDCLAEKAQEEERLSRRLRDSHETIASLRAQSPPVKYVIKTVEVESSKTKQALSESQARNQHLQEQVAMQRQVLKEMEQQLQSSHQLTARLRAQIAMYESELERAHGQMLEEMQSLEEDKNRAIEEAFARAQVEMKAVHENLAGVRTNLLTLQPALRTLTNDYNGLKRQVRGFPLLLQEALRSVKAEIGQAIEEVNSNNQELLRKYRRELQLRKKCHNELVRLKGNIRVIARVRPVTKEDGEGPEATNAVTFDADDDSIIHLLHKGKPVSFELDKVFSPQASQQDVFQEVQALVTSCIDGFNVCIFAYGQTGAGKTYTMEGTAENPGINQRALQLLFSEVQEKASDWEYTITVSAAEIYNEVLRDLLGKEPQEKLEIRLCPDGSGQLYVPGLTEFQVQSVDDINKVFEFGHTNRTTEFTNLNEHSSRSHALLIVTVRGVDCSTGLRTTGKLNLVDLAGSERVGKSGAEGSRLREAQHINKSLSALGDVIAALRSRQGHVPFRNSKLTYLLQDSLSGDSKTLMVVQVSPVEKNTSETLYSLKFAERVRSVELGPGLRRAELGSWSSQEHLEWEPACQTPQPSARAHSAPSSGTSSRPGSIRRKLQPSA

[26] = biological target: T29, magnesium dependent phosphatase 1 (human, UniProt Q86V88 1-176); assay: custom ELISA
T29 construct: Also the protein of the custom ELISA; also called MDP1
T29 sequence (Q86V88 whole entry): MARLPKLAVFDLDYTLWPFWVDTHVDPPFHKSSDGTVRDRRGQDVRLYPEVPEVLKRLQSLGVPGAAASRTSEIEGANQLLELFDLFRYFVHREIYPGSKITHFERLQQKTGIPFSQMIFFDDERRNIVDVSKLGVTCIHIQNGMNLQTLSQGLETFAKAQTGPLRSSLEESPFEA

[27] = biological target: T30, microtubule associated scaffold protein 2 (human, UniProt Q5JR59-3 1-348); assay: custom ELISA
T30 construct: Also the protein of the custom ELISA; also called MTUS2; microtubule associated tumor suppressor candidate 2
T30 sequence (looked up): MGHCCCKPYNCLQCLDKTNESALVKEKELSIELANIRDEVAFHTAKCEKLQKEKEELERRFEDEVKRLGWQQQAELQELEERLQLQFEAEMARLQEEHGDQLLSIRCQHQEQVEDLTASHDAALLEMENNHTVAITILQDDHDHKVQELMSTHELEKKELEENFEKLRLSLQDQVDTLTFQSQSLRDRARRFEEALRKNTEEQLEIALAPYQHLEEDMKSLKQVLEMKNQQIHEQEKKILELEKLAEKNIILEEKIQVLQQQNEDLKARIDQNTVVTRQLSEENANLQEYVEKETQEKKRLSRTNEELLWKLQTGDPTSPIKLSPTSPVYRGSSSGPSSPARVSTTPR

[28] = biological target: T31, phosphoribosylglycinamide formyltransferase, phosphoribosylglycinamide synthetase, … (human, UniProt P22102-2 1-433); assay: custom ELISA
T31 construct: Also the protein of the custom ELISA; also called GART
T31 sequence (looked up): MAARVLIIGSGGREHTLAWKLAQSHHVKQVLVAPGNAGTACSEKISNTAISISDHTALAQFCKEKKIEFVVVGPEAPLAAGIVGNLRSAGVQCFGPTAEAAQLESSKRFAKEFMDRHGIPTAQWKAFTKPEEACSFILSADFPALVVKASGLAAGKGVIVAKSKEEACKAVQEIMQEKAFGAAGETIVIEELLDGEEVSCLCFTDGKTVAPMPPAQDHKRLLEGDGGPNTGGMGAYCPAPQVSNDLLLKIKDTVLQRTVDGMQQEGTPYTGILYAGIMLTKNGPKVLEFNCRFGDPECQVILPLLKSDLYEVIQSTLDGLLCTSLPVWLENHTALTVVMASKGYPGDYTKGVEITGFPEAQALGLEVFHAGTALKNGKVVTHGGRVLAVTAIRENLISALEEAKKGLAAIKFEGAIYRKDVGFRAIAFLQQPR

[29] = biological target: T32, peptidylprolyl isomerase like 1 (human, UniProt Q9Y3C6 1-166); assay: custom ELISA
T32 construct: Also the protein of the custom ELISA; also called PPIL1
T32 sequence (looked up): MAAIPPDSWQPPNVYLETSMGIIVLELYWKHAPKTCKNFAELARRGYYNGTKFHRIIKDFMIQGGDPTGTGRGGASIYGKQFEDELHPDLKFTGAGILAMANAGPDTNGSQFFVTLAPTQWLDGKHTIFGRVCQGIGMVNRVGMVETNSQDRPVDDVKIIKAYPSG

- binding result [1]: binds
- binding result [2]: binds
- binding result [3]: binds
- binding result [4]: binds
- binding result [5]: binds
- binding result [6]: binds
- binding result (aminoacylase 3): binds
B1: recombinant antibody P1-F6 (antibody, V domains shown)
VH: QVPLKESGPALVKPTRTLTLTCTFSGFSLSTNGVSVGWIRQPPGKALDWLALIYWNDDKRYSPSLKNRLTITKDTSKNLVVLRMTNMDPVDTATYYCAHRPIASSRDGFDYWGQGTLVTVSS
VL: DIQMTQFPSTLSASVGETVTISCRASQSVSGWLAWYQQKPGKAPKLLMYKASALENGVPSRFSGSGSGTEFTLTISSLQPDDFATYYCQQYNGFPFTFGPGTKVDIN
notes: also called clone P1-F6

- binding result [7]: binds
- binding result [8]: binds
- binding result [9]: binds
- binding result [10]: binds
- binding result [11]: binds
- binding result [12]: binds
- binding result [13]: binds
- binding result [14]: binds
- binding result (DEAD-box helicase 53): binds
B2: recombinant antibody P1-B4 (antibody, V domains shown)
VH: QVQLVESGPEVKKPGASVKVSCKASGYTFTSYGISWVRQAPGQGLEWMGWISVYKSDTNDAQKFQGRVTMTTDTSTSTAYMELRSLRSDDTAVYYCARSRGIVGSTLDDNWGQGTLVTVSS
VL: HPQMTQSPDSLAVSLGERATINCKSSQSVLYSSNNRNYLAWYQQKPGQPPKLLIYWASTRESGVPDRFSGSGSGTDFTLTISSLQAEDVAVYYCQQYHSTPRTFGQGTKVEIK
notes: also called clone P1-B4

- binding result [15]: binds
- binding result [16]: binds
- binding result [17]: binds
- binding result [18]: binds
- binding result [19]: binds
- binding result [20]: binds
- binding result [21]: binds
- binding result [22]: binds
- binding result [23]: binds
- binding result [24]: binds
- binding result [25]: binds
- binding result (DEAD-box helicase 53): no binding
- binding result (kinesin family member C3): no binding
- binding result [26]: no binding
- binding result [27]: no binding
- binding result (aminoacylase 3): no binding
- binding result [28]: no binding
- binding result [29]: no binding
B3: recombinant antibody P3-F1 (antibody, V domains shown)
VH: QVQLVESGPTLVKPTQTLTVTCTFSGFSLNTRAVGVGWIRQPPGGALEWLALVYWDDDKRYSPSLKNRLTITKDTSRNQVVLTLTNVAPVDTGTYYCSHHRLTDGRLRWGQGTLVTVSS
VL: QVQLVQSPGTLSLSPGERATLSCRASQSITSSYLAWYQQKFGQAPRLLIYRASNRATGIPDRFSGSGSGTDFTLTISSLESEDFAVYYCQQYDTSPWTFGQGTKVEIK
notes: also called clone P3-F1
